{
  "source": "IntAct's records for PubMed 18682563",
  "parents": {"B1": {"name": "Inner tegument protein (Human herpesvirus 1 (strain 17) (HHV-1)), P10221 (parent)", "chain": "MADRGLPSEAPVVTTSPAGPPSDGPMQRLLASLAGLRQPPTPTAETANGADDPAFLATAKLRAAMAAFLLSGTAIAPADARDCWRPLLEHLCALHRAHGLPETALLAENLPGLLVHRLVVALPEAPDQAFREMEVIKDTILAVTGSDTSHALDSAGLRTAAALGPVRVRQCAVEWIDRWQTVTKSCLAMSPRTSIEALGETSLKMAPVPLGQPSANLTTPAYSLLFPAPFVQEGLRFLALVSNRVTLFSAHLQRIDDATLTPLTRALFTLALVDEYLTTPERGAVVPPPLLAQFQHTVREIDPAIMIPPLEANKMVRSREEVRVSTALSRVSPRSACAPPGTLMARVRTDVAVFDPDVPFLSSSALAVFQPAVSSLLQLGEQPSAGAQQRLLALLQQTWTLIQNTNSPSVVINTLIDAGFTPSHCTHYLSALEGFLAAGVPARTPTGHGLGEVQQLFGCIALAGSNVFGLAREYGYYANYVKTFRRVQGASEHTHGRLCEAVGLSGGVLSQTLARIMGPAVPTEHLASLRRALVGEFETAERRFSSGQPSLLRETALIWIDVYGQTHWDITPTTPATPLSALLPVGQPSHAPSVHLAAATQIRFPALEGIHPNVLADPGFVPYVLALVVGDALRATCSAAYLPRPVEFALRVLAWARDFGLGYLPTVEGHRTKLGALITLLEPAARGGLGPTMQMADNIEQLLRELYVISRGAVEQLRPLVQLQPPPPPEVGTSLLLISMYALAARGVLQDLAERADPLIRQLEDAIVLLRLHMRTLSAFFECRFESDGRRLYAVVGDTPDRLGPWPPEAMGDAVSQYCSMYHDAKRALVASLASLRSVITETTAHLGVCDELAAQVSHEDNVLAVVRREIHGFLSVVSGIHARASKLLSGDQVPGFCFMGQFLARWRRLSACYQAARAAAGPEPVAEFVQELHDTWKGLQTERAVVVAPLVSSADQRAAAIREVMAHAPEDAPPQSPAADRVVLTSRRDLGAWGDYSLGPLGQTTAVPDSVDLSRQGLAVTLSMDWLLMNELLRVTDGVFRASAFRPLAGPESPRDLEVRDAGNSLPAPMPMDAQKPEAYGHGPRQADREGAPHSNTPVEDDEMIPEDTVAPPTDLPLTSYQ", "partner": "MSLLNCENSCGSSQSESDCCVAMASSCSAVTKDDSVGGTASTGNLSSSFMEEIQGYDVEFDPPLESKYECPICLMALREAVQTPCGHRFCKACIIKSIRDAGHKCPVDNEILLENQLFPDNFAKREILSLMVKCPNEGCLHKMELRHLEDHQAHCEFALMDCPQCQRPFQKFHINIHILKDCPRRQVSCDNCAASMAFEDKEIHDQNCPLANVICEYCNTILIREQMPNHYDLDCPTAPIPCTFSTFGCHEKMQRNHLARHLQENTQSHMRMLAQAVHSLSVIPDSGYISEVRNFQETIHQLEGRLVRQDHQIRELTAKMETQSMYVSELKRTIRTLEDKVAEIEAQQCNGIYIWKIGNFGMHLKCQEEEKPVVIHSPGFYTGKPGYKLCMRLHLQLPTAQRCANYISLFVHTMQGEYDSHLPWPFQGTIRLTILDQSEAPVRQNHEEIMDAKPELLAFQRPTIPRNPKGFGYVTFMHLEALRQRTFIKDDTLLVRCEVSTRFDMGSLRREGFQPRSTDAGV"}},
  "data": [
    {"variants_of": "B1", "conditions": "with traf6_human TRAF6, Q9Y4K3", "values": [
      {"variant": "E1101A", "effect of a mutation on the interaction": "decreasing interaction strength"}
    ]}
  ]
}
